Where no end group is shown, it is not given here. [ ]: non-standard residue; d: D form.
B1: SAA: Serum amyloid A, multi-functional apolipoprotein, 12- to 14-kDa, SEQ ID NO:19 (protein, listed as Homo sapiens)
chain: MKLLTGLVFCSLVLGVSSRSFFSFLGEAFDGARDMWRAYSDMREANYIGSDKYFHARGNYDAAKRGPGGVWAAEAISDARENIQRFFGHGAEDSLADQAANEWGRSGKDPNHFRPAGLPEKY

Assays:
[1] = tested on: RA FLS; assay: Cell proliferation assay ([3H]-thymidine incorporation, cell counts) in RA FLS; format: cell-based, human; settings: 72 h
Description: (§1) Fibroblast-like synoviocytes (FLS) were prepared from synovial samples obtained from patients suffering from RA and osteoarthritis (OA), all of whom were also undergoing total joint replacement surgery. The FLS were isolated from the synovial tissues in accordance with a previously described procedure (Cho, C. S., M. L. Cho, S. Y. Min, W. U. Kim, D. J. Min, S. S. Lee, S. H. Park, J. Choe, and H. Y. Kim. 2000. CD40 engagement on synovial fibroblast up-regulates production of vascular endothelial growth factor. J. Immunol. 164: 5055-5061).
(§2) In brief, fresh synovial tissues were minced into 2- to 3-mm pieces, then treated for 4 h with 4 mg/ml type I collagenase (Worthington Biochemical), and maintained in Dulbecco's Modified Eagle's Medium (DMEM) containing 10% FBS at 37° C. in an atmosphere containing 5% CO2. […] MH7A cells, the immortalized synoviocytes that harbor the SV40 T antigen, were grown in DMEM supplemented with 10% FBS, as previously described (Miyazawa, K, A. Mori, and H. Okudaira. 1998. Establishment and characterization of a novel human rheumatoid fibroblast-like synoviocyte line, MH7A, immortalized with SV40T antigen. J. Biochem. 124: 1153-1162), and then employed in some of the experiments. Human umbilical vein endothelial cells (HUVECs) were isolated from fresh human umbilical cords via collagenase (Worthington Biochemical) digestion, and then maintained in 20% FBS-containing M-199 medium (Sigma, St. Louis, Mo.), as previously described. All HUVECs were used after no more than five passages.
(§3) The RA FLS, OA FLS, and HUVECs were plated onto 24-well culture dishes at a density of 2×10^4 cells/well, and then permitted to attach overnight. After 24 h of serum starvation, the cells were treated for 72 h with a variety of mitogens. [^3H]-thymidine (1 μCi) was added to each of the wells prior to the final 6 h of incubation. Cell growth was also evaluated via cell counts. Control and mitogen-treated cells were harvested by trypsinization, and the number of cells was determined with a hemocytometer, under ×100 magnification.

[2] = tested on: OA FLS; assay: Cell proliferation assay ([3H]-thymidine incorporation, cell counts) in OA FLS; format: cell-based, human; settings: 72 h
Description: as §1, §2, §3

[3] = tested on: RA FLS; assay: Intracellular Ca2+ measurement (Fluo3-AM) in RA FLS; format: cell-based, human
Description: The isolated FLS were incubated with Fluo3-AM working solution, containing 0.03% plutonic F-127 (the final concentration of Fluo3-AM was 20 μmol·L^−1) for 1 h at 37° C. After incubation, the cells were washed three times with normal or Na^+- and K^+-free Tyrode's solution, at 25° C. in order to remove the extracellular Fluo3-AM. Fluo3-AM fluorescence in the cells was elicited at 488 nm with a high-power Ar^+ laser, and the emission bands were detected at 530 nm with a photomultiplier. The fluorescence signal was detected using a confocal laser scanning system (Biorad Lasersharp MRA2, Oxfordshire, UK), equipped with a Nikon E-600 Eclipse microscope. The fluorescence intensity (FI) was measured both prior to (FI0) and after (FI) the addition of serum amyloid A (SAA) or phorbol-12-myristate-13-acetate (PMA) to either the normal the Na^+- and K^+-free Tyrode's solution. The change in [Ca^2+]i, was expressed in terms of the (FI−FI0)/FI0 ratio. A total of 50-120 images were scanned in each cell.

[4] = tested on: RA FLS; assay: Western blot analysis of signaling molecules in RA FLS; format: cell-based, human; settings: for time of peak cyclin D1 expression: SAA 3 μM or WKYMVm 10 nM
Description: RA FLS were incubated for 24 h in DMEM without FBS, and then SAA (SEQ ID NO:19) (3 μM) was added to RA-FLS for the indicated times. The treated RA-FLS was then washed twice in phosphate-buffered saline (PBS), dissolved in sample buffer (50 mM Tris-HCl, 100 mM NaCl, 0.1% sodium dodecyl sulfate (SDS), 1% NP-40, 50 mM NaF, 1 mM Na3VO4, 1 μg/ml aprotinin, 1 μg/ml pepstatin, and 1 μg/ml leupeptin), boiled, separated via SDS-polyacrylamide gel electrophoresis, and transferred to nitrocellulose membranes. After immunoblot analysis with phospho-ERK1/2 (Thr 202/Tyr 204), phospho-Akt (Ser 473), phospho-STAT3 (Tyr 705), Cylin D1, or Bcl-2 antibodies, the membranes were stripped and re-incubated with anti-Actin antibody in order to detect total protein amounts.

[5] = tested on: HUVECs; assay: HUVEC wounding migration assay; format: cell-based, human; settings: SAA 5 μM, WKYMVm 10 nM, VEGF 20 ng/ml; 12 h
Description: […] After 12 h of incubation, migration was quantitated via counts of the cells migrating beyond the reference line. For the tube formation assay, the HUVECs were seeded on a layer of previously polymerized Matrigel (BD Biosciences) with SAA (SEQ ID NO:19) (5 μg/ml), WKYMVm (SEQ ID NO:5) peptide (10 nM), a specific ligand for FPRL1 (32, 33) or VEGF (20 ng/ml). After 18 h of incubation, the cell morphology was visualized via phase-contrast microscopy and photographed.

[6] = tested on: C57BL/6 mice; assay: Mouse Matrigel plug assay; format: in vivo; settings: 7 days; for vessels in Matrigel (stained sections): SAA 80 μg or WKYMVm 1 μg
Description: C57BL/6 mice (7 weeks of age) were given s.c. injections of 500 μl of Matrigel containing PBS, SAA (SEQ ID NO:19) (80 μg), or WKYMVm (SEQ ID NO:5) (1 μg). After 7 days, the skins of the mice were pulled back to expose the Matrigel plugs, which remained intact. After the noting and photographing of any quantitative differences, hemoglobin levels were measured via the Drabkin method, using a Drabkin reagent kit 525 (Sigma) for the quantitative assessment of blood vessel formation. The hemoglobin concentration was calculated from the parallel assay of a known amount of hemoglobin. The matrigel plugs were fixed in 4% formalin, embedded with paraffin, and stained using hematoxylin and eosin.

Molecule	DNA synthesis activity / proliferation ([3H]-thymidine incorporation) [1]	DNA synthesis activity / proliferation ([3H]-thymidine incorporation) [2]	release of intracellular Ca2+ ([3]; WKYMVm 10 nM)	time of peak cyclin D1 expression [4] [h]	activation of ERK and Akt ([4]; WKYMVm 1 to 1000 nM)	migratory activity of HUVECs relative to control cells [5]	vessels in Matrigel (stained sections) [6]	cell numbers [1]	concentration of maximal effect on DNA synthesis [1] [µM]	cell numbers [2]	concentration of maximal effect on DNA synthesis [2] [µM]	increase in intracellular Ca2+ compared to basal levels ([3]; RA FLS, SAA 3 μM) [fold]	earliest detectable ERK1/2 and Akt phosphorylation after stimulation ([4]; 3 μM SAA) [min]	mean hemoglobin content of Matrigels ([6]; SAA 80 μg in Matrigel s.c.) [g/dL]
WKYMVm: specific agonist peptide for FPRL1, SEQ ID NO:5 (WKYMV[dM]; listed as Homo sapiens)	dose-dependent increase	not OA FLS	mimicked	4	dose and time-dependent activation	approximately 3 times	more vessels	–	–	–	–	–	–	–
B1	increased in a dose-dependent fashion	increased in a dose-dependent fashion	–	4	–	approximately 3 times	more vessels	dose-dependently increased	5	dose-dependently increased	5	2.3	1	4.90 ± 0.66

— patent US20100291089A1, “LIGAND OF REGULATING IMMUNE RESPONSE, AND USE THEREOF IN TREATING AN IMMUNE RESPONSE-RELATED DISEASE” (POSTECH ACADEMY-INDUSTRY FOUNDATION, priority 2005, published 2010)
